Data published in US20240084023A1 (NGM BIOPHARMACEUTICALS, published 2024).

How the values were obtained:
Assay in all cases: flow cytometry on transfected 293XP cells
[1] = target: T1, GCGR extracellular domain alanine mutant F31A (human, UniProt P47871 26-136, limits assumed)
T1 construct: expressed in 293XP cells
T1 chain: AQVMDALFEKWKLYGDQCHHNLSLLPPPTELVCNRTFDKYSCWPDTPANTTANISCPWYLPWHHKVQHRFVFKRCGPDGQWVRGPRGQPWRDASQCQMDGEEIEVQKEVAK
Protocol: (§1) To assist in gathering information on the GCGR epitope that the 6B5 binning group bound to, “alanine scanning mutagenesis” was undertaken. These alanine scanning mutagenesis platform is a technique used for mapping both linear and conformational antigen epitopes by evaluating the effects of point mutations across a target protein. Single residues in a target protein are replaced by alanine one at a time to construct a mutant library. Each variant is assayed for its ability to bind to an antibody of interest. […] Amino acids across the extracellular domain of GCGR were mutated to alanine and the anti-GCGR antibody Hz6B5 was tested for binding to the alanine mutants.
(§2) The wild-type GCGR extracellular domain and the alanine mutants were each transfected into 293XP cells and incubated for 24 hours. Antibody Hz6B5 was incubated with the transfected cells for 30 minutes at 4° C. After washing with PBS/1% BSA/0.1% azide, the cells were incubated with a labeled anti-mouse Fc antibody (Jackson Immunoresearch) for 30 minutes at 4° C. After washing with PBS/1% BSA/0.1% azide, the cells were analyzed using a flow cytometer BD (FACSCalibur instrument) and cytometric analytical software (FlowJo). A serum sample from a mouse immunized with human GCGR was used as positive control to confirm expression of the alanine mutants.

[2] = target: T2, GCGR extracellular domain alanine mutant F33A (human, UniProt P47871 26-136, limits assumed)
T2 construct: expressed in 293XP cells
T2 chain: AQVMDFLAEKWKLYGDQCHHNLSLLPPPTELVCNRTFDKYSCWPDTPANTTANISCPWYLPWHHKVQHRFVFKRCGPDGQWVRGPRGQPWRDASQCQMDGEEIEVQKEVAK
Protocol: as §1, §2

[3] = target: T3, GCGR extracellular domain alanine mutant W36A (human, UniProt P47871 26-136, limits assumed)
T3 construct: expressed in 293XP cells
T3 chain: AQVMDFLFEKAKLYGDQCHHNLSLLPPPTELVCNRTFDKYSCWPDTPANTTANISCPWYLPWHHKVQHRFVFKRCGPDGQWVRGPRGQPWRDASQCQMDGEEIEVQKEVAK
Protocol: as §1, §2

[4] = target: T4, GCGR extracellular domain alanine mutant D41A (human, UniProt P47871 26-136, limits assumed)
T4 construct: expressed in 293XP cells
T4 chain: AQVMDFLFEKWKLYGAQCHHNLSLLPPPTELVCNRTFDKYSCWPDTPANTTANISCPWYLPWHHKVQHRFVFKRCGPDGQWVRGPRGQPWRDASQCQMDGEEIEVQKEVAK
Protocol: as §1, §2

[5] = target: T5, GCGR extracellular domain alanine mutant H44A (human, UniProt P47871 26-136, limits assumed)
T5 construct: expressed in 293XP cells
T5 chain: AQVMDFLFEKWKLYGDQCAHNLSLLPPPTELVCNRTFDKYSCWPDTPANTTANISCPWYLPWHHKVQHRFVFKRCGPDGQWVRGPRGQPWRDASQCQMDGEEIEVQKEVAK
Protocol: as §1, §2

[6] = target: T6, GCGR extracellular domain alanine mutant H45A (human, UniProt P47871 26-136, limits assumed)
T6 construct: expressed in 293XP cells
T6 chain: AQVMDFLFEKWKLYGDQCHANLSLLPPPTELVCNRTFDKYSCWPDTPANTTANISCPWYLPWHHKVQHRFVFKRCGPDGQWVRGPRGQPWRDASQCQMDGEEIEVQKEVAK
Protocol: as §1, §2

[7] = target: T7, GCGR extracellular domain alanine mutant L50A (human, UniProt P47871 26-136, limits assumed)
T7 construct: expressed in 293XP cells
T7 chain: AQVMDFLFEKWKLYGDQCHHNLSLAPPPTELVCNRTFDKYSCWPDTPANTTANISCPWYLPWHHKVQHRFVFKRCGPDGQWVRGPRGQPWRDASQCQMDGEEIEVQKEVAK
Protocol: as §1, §2

[8] = target: T8, GCGR extracellular domain alanine mutant F62A (human, UniProt P47871 26-136, limits assumed)
T8 construct: expressed in 293XP cells
T8 chain: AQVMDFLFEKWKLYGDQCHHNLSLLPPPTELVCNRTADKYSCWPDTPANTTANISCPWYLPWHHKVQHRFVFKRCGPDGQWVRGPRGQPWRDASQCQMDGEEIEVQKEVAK
Protocol: as §1, §2

[9] = target: T9, GCGR extracellular domain alanine mutant Y65A (human, UniProt P47871 26-136, limits assumed)
T9 construct: expressed in 293XP cells
T9 chain: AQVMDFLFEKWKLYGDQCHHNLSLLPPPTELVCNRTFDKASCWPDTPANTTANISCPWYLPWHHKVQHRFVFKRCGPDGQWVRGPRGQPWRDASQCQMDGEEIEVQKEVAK
Protocol: as §1, §2

[10] = target: T10, GCGR extracellular domain alanine mutant W83A (human, UniProt P47871 26-136, limits assumed)
T10 construct: expressed in 293XP cells
T10 chain: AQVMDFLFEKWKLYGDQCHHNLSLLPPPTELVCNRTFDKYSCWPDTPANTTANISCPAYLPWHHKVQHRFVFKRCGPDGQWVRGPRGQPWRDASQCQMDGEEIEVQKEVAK
Protocol: as §1, §2

[11] = target: T11, GCGR extracellular domain alanine mutant Y84A (human, UniProt P47871 26-136, limits assumed)
T11 construct: expressed in 293XP cells
T11 chain: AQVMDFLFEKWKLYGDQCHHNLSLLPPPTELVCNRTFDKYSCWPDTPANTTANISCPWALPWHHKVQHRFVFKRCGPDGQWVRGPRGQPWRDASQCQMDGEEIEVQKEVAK
Protocol: as §1, §2

[12] = target: T12, GCGR extracellular domain alanine mutant P110A (human, UniProt P47871 26-136, limits assumed)
T12 construct: expressed in 293XP cells
T12 chain: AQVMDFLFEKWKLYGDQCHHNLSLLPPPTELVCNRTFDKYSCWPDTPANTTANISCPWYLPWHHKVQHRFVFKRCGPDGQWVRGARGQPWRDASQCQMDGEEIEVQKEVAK
Protocol: as §1, §2

[13] = target: T13, GCGR extracellular domain alanine mutant R116A (human, UniProt P47871 26-136, limits assumed)
T13 construct: expressed in 293XP cells
T13 chain: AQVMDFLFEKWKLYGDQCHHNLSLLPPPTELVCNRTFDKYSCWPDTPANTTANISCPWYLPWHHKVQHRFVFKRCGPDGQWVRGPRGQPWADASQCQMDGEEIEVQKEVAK
Protocol: as §1, §2

% positive cells [1]: 85.1%
% positive cells [2]: 71.8%
% positive cells [3]: 70.9%
% positive cells [4]: 84.3%
% positive cells [5]: 82.2%
% positive cells [6]: 81.3%
% positive cells [7]: 86.6%
% positive cells [8]: 62.8%
% positive cells [9]: 64.8%
% positive cells [10]: 72.6%
% positive cells [11]: 63.4%
% positive cells [12]: 84.7%
% positive cells [13]: 85.9%
B1: anti-GCGR antibody Hz6B5 (antibody, V domains shown)
VH: QVQLVQSGAEVKKPGSSVKVSCKASGFTFTNHWLGWVRQAPGQGLEWIGDIYPGGYYINYNEKFKGRVTITADESTSTAYMELSSLRSEDTAVYYCARHTNYGSDYWGQGTTVTVSS
VL: DVVMTQSPLSLPVTLGQPASISCRSSQSIVDSYGNTFLEWYQQRPGQSPRLLIYKVSNRLSGVPDRFSGSGSGTDFTLKISRVEAEDVGVYYCFQGSHVPWTFGQGTKLEIK
notes: Humanized 6B5
